From paper PMC4501363

Molecular target: actin-related protein 1 (human (endogenous in HEK293T)) (UniProt P61163)
Experiment: co-sedimentation

- percent of Arp1 in the monomer/dimer pool: < 5%
Substance: actin-related protein 1 (from UniProt P61163 1-376) (natural protein)
